This note sets out measurements from patent publication US20190381086A1, “INHIBITION OF NEDDYLATION USING GLYCYL-tRNA SYNTHETASE INHIBITORS” (The Scripps Research Institute, priority 2015, published 2019).

Experiment [1] has as its target N-terminal GST-tagged GlyRS (human) (UniProt P41250). Put plainly: biolayer interferometry (Octet), GlyRS immobilized.
For experiment [2] the target is unchanged. Put plainly: biolayer interferometry (Octet), GlyRS immobilized, 30°C. On the technique in general: Biolayer interferometry detects binding as a change in optical thickness at a sensor tip.

N-terminal GST-tagged GlyRS (human), sequence (P41250 55-739): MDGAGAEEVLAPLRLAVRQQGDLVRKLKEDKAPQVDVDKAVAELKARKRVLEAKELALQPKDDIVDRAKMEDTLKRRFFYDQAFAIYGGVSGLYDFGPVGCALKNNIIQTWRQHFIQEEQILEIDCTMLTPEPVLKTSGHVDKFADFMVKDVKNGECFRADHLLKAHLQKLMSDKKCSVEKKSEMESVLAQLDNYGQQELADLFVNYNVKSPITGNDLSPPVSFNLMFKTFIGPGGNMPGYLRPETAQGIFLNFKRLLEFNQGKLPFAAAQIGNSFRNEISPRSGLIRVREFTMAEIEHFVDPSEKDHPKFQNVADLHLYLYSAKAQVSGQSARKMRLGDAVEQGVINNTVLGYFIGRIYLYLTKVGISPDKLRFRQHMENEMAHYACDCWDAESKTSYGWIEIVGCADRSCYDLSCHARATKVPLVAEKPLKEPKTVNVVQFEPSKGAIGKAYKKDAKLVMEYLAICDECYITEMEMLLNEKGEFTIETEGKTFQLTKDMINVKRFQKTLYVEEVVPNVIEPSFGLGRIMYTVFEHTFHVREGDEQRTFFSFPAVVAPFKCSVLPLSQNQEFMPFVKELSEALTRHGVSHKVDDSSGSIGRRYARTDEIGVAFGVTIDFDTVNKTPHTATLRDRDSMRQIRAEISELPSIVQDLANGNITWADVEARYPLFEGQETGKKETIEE

In experiment [1], “Ubc12^N8: NEDD8-conjugated Ubc12 (C111S, stable ester linkage to His-SUMO-tagged NEDD8) (from UniProt P61081 1-183; Q15843 1-76)” yielded a fold stronger than the Kd for NEDD8 alone of 30 fold and a fold stronger than the Kd for Ubc12 alone of 100 fold. Further, the Kd (in general, a measure of binding affinity in units of concentration) in experiment [2] was 4.09 nM.
